Measurements: patent publication US20240368283A1
Numbering of substitutions follows the chain as printed.

B1: TA101 (antibody, V domains shown)
VH: DVQLVESGGGVARPGEFLRLSCAASGFTFRDYDMGWVRQAPGEGLEWVSSISVSGTTYYADSVKGRFTISRDNSENTLYLQMNSLTAEDTAVYYCGREDTLFHYWGLGTLVTVSS
VL: QSVLTQPPSASGTPGQRVTISCSGSTSNIGTRYVYWYQQLPGTAPKLLIYKNLQRPSGVPDRFSGSKSGTSASLAISGLQSEDEADYYCAAWDERLNGWVFGGGTKLTVL
modifications: Fc SEQ 587, CL SEQ 416
B2: TA102 (antibody, V domains shown)
VH: DVQLVESGGGVVRPGESLRLSCAASGFTFRNYDMTWVRQAPGEGLEWVATISGTDDTTYYADSVKGRATISRDNSNNTLYLRLFSLRAEDTAIYYCAREASNSFIDYWGLGTLVTVSS
VL: B1 VL with T26S, T31R, K51R, L53F, Q54E, A91S, R95S
modifications: Fc SEQ 587, CL SEQ 416
B3: TA104 (antibody, V domains shown)
VH: B1 VH with F17S
VL: B1 VL
modifications: Fc SEQ 587, CL SEQ 416
B4: TA275 (antibody, V domains shown)
VH: QVTLKESGPGILQPSQTLSLTCSFSGFSLSTFGMGVGWIRQPSGKGLEWLAHIWWDDDKYYNPALKSRLTISKDTSKNQVFLKIANVDTADTATYYCARIPTRYWYFDVWGTGTTVTVSS
VL: QAVVTQESALTTSPGETVTLTCRSSTGAVTTSNYANWVQEKPDHLFTGLIGGTNNRAPGVPARFSGSLIGDKAALTITGAQTEDEAIYFCALWYSTHYVFGGGTKVTVL
modifications: Fc SEQ 587, CL SEQ 416
B5: TA289 (antibody, V domains shown)
VH: B4 VH with P101R, T102G, R103T, Y104W
VL: B4 VL with T96N, H97Q, Y98F, V99I, G102S
modifications: Fc SEQ 587, CL SEQ 416
B6: TA132 (antibody, V domains shown)
VH: EVQLLESGGAFVQPGGSLRLSCAASGFTFSDYYMSWVRQAPGKGLEWVSVISNSGGSTYYTDSVKGRFTISRDNSKNTLYLQINSLRAEDTAVYYCTKDIGMTYFDYWGQGTLVTVSS
VL: QSVLTQPPSASGAPGQRVTISCSGSYSNIGNSYVSWYQQLPGTAPKLLIYLNSQRPSGVPDRFSGSKSGTSASLAISGLQSEDEADYYCAAWDDLNVWVFGGGTKLTVL
modifications: Fc SEQ 587, CL SEQ 416

What was measured:
[1] = molecular target: cyPD1 (cynomolgus monkey); experiment: biosensor kinetics (BLI type); antibody captured on anti-human Fc biosensor, PD-1 in solution
[2] = molecular target: huPD1 (human) (UniProt Q15116); experiment: as above
Chain of huPD1 (human) (Q15116 25-170 limits assumed): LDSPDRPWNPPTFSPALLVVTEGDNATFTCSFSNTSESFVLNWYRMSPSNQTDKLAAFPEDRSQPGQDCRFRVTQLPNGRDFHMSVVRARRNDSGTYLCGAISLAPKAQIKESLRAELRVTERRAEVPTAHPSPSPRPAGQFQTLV

Row | Binder | Kd [1] | koff [1] | kon [1] | Kd [2] | koff [2] | kon [2]
1 | B1 | 62.2 nM | 0.0076 s⁻¹ | 120000 M⁻¹ s⁻¹ | 32.9 nM | 0.022 s⁻¹ | 680000 M⁻¹ s⁻¹
2 | B2 | 7.2 nM | 0.01 s⁻¹ | 1.4e+06 M⁻¹ s⁻¹ | 24.8 nM | 0.014 s⁻¹ | 540000 M⁻¹ s⁻¹
3 | B3 | 56.8 nM | 0.009 s⁻¹ | 160000 M⁻¹ s⁻¹ | 33.1 nM | 0.024 s⁻¹ | –
4 | B4 | 987 nM | 0.2 s⁻¹ | 200000 M⁻¹ s⁻¹ | 600 nM | 0.2 s⁻¹ | 330000 M⁻¹ s⁻¹
5 | B5 | 1390 nM | 2.1 s⁻¹ | 1.6e+06 M⁻¹ s⁻¹ | 484 nM | 1.6 s⁻¹ | 3.4e+06 M⁻¹ s⁻¹
6 | B6 | 92 nM | 0.0137 s⁻¹ | 149000 M⁻¹ s⁻¹ | 5.72 nM | 0.000647 s⁻¹ | 113000 M⁻¹ s⁻¹
